± gives the standard error. This sample holds only a part of the variants without activity.
B1: glmS ribozyme (parent)
chain: AUAAAAGCGCCAGAACUACAGAAAUGUAGUUGACGAGGAGGAGGUUUAUCGAAUUUUCGGCGGAUGCCUCCAAA

Legend:
Conditions in all cases: with glucosamine-6-phosphate
glucosamine-6-phosphate [1] = variants of: B1; assay: self-cleavage kobs at 40 uM GlcN6P; higher = faster cleavage; RNA array
How it was run: (§1)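 Using a hybridised Cy3 probe at 37 °C, barcoded ribozyme variants transcribed in situ by E. coli RNA polymerase on sequenced MiSeq chips were monitored across tiles imaged over ~14 h. The flow contained glucosamine-6-phosphate from 40 μM to 10 mM in HEPES/KCl/Mg(OAc)2 buffer. Signals were normalised to baseline and to non-cleaving reference variants before per-tile medians were fit to one- or two-exponential decays to yield kobs. Weighted Michaelis–Menten fits across concentrations gave kcat and KM.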

glucosamine-6-phosphate [2] = variants of: B1; assay: self-cleavage kobs at 10000 uM GlcN6P; higher = faster cleavage; RNA array
How it was run: as §1

glucosamine-6-phosphate [3] = variants of: B1; assay: self-cleavage kobs at 160 uM GlcN6P; higher = faster cleavage; RNA array
How it was run: as §1

glucosamine-6-phosphate [4] = variants of: B1; assay: self-cleavage kobs at 640 uM GlcN6P; higher = faster cleavage; RNA array
How it was run: as §1

glucosamine-6-phosphate [5] = variants of: B1; assay: self-cleavage kobs at 2500 uM GlcN6P; higher = faster cleavage; RNA array
How it was run: as §1

Variant | self-cleavage kobs at 40 uM GlcN6P (glucosamine-6-phosphate [1]) [s⁻¹] | self-cleavage kobs at 10000 uM GlcN6P (glucosamine-6-phosphate [2]) [s⁻¹] | self-cleavage kobs at 160 uM GlcN6P (glucosamine-6-phosphate [3]) [s⁻¹] | self-cleavage kobs at 640 uM GlcN6P (glucosamine-6-phosphate [4]) [s⁻¹] | self-cleavage kobs at 2500 uM GlcN6P (glucosamine-6-phosphate [5]) [s⁻¹]
A39U C61A U65C | < 1e-05 | – | – | – | –
G40C C50U C58A C71G | < 1e-05 | < 1e-05 | – | – | –
A36U U65G | < 1e-05 | < 1e-05 | < 1e-05 | – | –
G41C | 1.75e-05 ± 1.7e-06 | 0.00255 ± 0.00067 | 4.15e-05 ± 1.9e-06 | 0.000131 ± 3.6e-06 | 0.000529 ± 4.7e-05
G40A G62U | < 1e-05 | < 1e-05 | < 1e-05 | < 1e-05 | –
G38C U57C | < 1e-05 | < 1e-05 | < 1e-05 | – | –
G41A G43C G62U | < 1e-05 | < 1e-05 | – | – | –
A39C U55G | 0.000197 ± 7e-05 | – | 0.000315 ± 8.7e-05 | 0.00104 ± 0.00022 | –
G38C A39U G60U | < 1e-05 | < 1e-05 | – | – | < 1e-05
G37A A42C U47G | < 1e-05 | – | < 1e-05 | < 1e-05 | –
A36U U55G G63A C71A | < 1e-05 | – | – | – | –
G37U G60A | < 1e-05 | – | – | < 1e-05 | –
G41U C58G | < 1e-05 | < 1e-05 | < 1e-05 | < 1e-05 | < 1e-05
G38U A52C C61A | < 1e-05 | – | – | – | –
G37A C50G C70G | 4.31e-05 ± 2.1e-05 | – | – | – | –
A39C A52G G59U U69G | < 1e-05 | – | – | – | –
A39G U65G C67G | 0.000107 ± 2.4e-05 | 0.00497 ± 0.0012 | – | – | –
G37U G43U | < 1e-05 | < 1e-05 | – | < 1e-05 | –
G37U G43C | < 1e-05 | < 1e-05 | < 1e-05 | – | < 1e-05
A39G U45C C67U | 0.000136 ± 5.9e-05 | 0.00434 ± 0.0011 | – | – | –
A36U U54C | < 1e-05 | – | < 1e-05 | < 1e-05 | –
A36G U65G | < 1e-05 | < 1e-05 | < 1e-05 | < 1e-05 | < 1e-05
G37C A42C | < 1e-05 | – | < 1e-05 | – | < 1e-05
G37C G59C A64G C68A | < 1e-05 | – | < 1e-05 | – | –

Variant | self-cleavage kobs at 40 uM GlcN6P (glucosamine-6-phosphate [1]) [s⁻¹] | self-cleavage kobs at 10000 uM GlcN6P (glucosamine-6-phosphate [2]) [s⁻¹] | self-cleavage kobs at 160 uM GlcN6P (glucosamine-6-phosphate [3]) [s⁻¹] | self-cleavage kobs at 640 uM GlcN6P (glucosamine-6-phosphate [4]) [s⁻¹] | self-cleavage kobs at 2500 uM GlcN6P (glucosamine-6-phosphate [5]) [s⁻¹]
G41U G43U | < 1e-05 | < 1e-05 | – | < 1e-05 | < 1e-05
G40U U54G | 0.000133 ± 1.9e-05 | 0.00364 ± 0.00066 | – | 0.00124 ± 0.00029 | 0.00192 ± 0.00049
G40U U54A | 7.88e-05 ± 1.1e-05 | 0.0025 ± 0.00054 | 0.000207 ± 2.7e-05 | 0.000391 ± 5.1e-05 | 0.00192 ± 0.00039
G38C A42G | < 1e-05 | < 1e-05 | < 1e-05 | < 1e-05 | < 1e-05
G38U G44U U49C | < 1e-05 | < 1e-05 | – | – | –
A36U G43U C50U | < 1e-05 | – | – | – | –
G41C G66A U69C | < 1e-05 | – | < 1e-05 | – | –
A39G A48U C58G | < 1e-05 | < 1e-05 | – | – | –
A39C G40C U47C | < 1e-05 | – | – | – | –
A39C A48C U55C C58U | < 1e-05 | – | – | < 1e-05 | < 1e-05
G40A U45G | 5.96e-05 ± 1.5e-05 | 0.000145 ± 3.5e-05 | – | 0.000563 ± 0.00021 | 0.000133 ± 4.2e-05
G41A A48G | < 1e-05 | – | < 1e-05 | < 1e-05 | < 1e-05
G38A A42U C70A | < 1e-05 | < 1e-05 | – | – | < 1e-05
G37C G59A | < 1e-05 | < 1e-05 | < 1e-05 | – | –
G37U U45G U46C G63A C68A | < 1e-05 | < 1e-05 | – | – | –
G37U G43C G66U | < 1e-05 | < 1e-05 | – | – | –
G41C U49A | < 1e-05 | – | < 1e-05 | < 1e-05 | < 1e-05
A36G U56G | < 1e-05 | – | – | < 1e-05 | –
G38U A52C | < 1e-05 | < 1e-05 | – | < 1e-05 | –
G37A C61A | < 1e-05 | < 1e-05 | – | < 1e-05 | –
A36U C67U C70G | 7.02e-05 ± 2.8e-05 | 3.53e-05 ± 1.7e-05 | – | – | –
G41C U49G A53G | < 1e-05 | – | – | – | –
G40C G44C | < 1e-05 | < 1e-05 | – | – | –
G41A G62U C67G | < 1e-05 | – | – | – | –
